Data on eleven molecules can be found in patent US20210198347A1 (Chugai, published 2021).

B1: COS0448oo-SG1148 (antibody, human IgG1, kappa, V domains shown)
VH: QSVEESGGRLVTPGTPLTLTCTVSGFSLSNYGMIWVRQAPGEGLEYIGFVSGSGSAYYANWVKGRFTISKTSTTVDLKMTSLTTEDTATYFCARGAYNTDSYSYSLYYGMDLWGPGTLVTVSS
VL: QIVMTQTPASVEVAVGGTVTIKCQASQSIYSYLSWYQQKPGQPPKLLIYGASTLASGVPSRFKGSRSGTEFTLTISDLECADAATYYCQSNYATTTTYGTFGGGTKVEIKR
notes: Rabbit B-cell derived variable regions; also called COS448; COS44800(-SG1148)
B2: COS0499ee-SG1148 (antibody, human IgG1, kappa, V domains shown)
VH: QSLEESGGRLVTPGTPLTLTCTASGFSLSNYNMAWVRQAPGKGLEWIGIIETTTNTYYARWARGRFTISKTSSTTVDLQIASPTTEDTATYFCGRRVSNSHDLWGPGTLVTVSS
VL: AYDMTQTPASVSAAVGGTVTINCQASQTIGGWCAWYQQKPGQPPKLLIYKASTLASGVSSRFKGSGSGTEFALTISDLECDDAATYYCQHGYYTSSTIENTFGGGTKVEIKR
notes: also called COS499; COS499ee(-SG1148)
B3: COS0547gg-SG1148 (antibody, human IgG1, kappa, V domains shown)
VH: QSLEESGGRLVTPGTPLTLTCTASGFSLSSYHMDWVRQAPGKGLEWIGIITYTGDTYYATWAKGRFTISKTSSTTVDLKMASLTTEDTATYFCARRQYDAYNVWGPGTLVTVSS
VL: AYDMTQTPASVEVAVGGTVTIKCQASQSINNYLAWYQQKPGQPPKLLIYYASTLASGVPSRFKGSRSGTEFTLTISGVECADAATYYCQHGYYTSSNIDSVFGGGTKVEIKR
B4: COR0058bb-SG1148 (antibody, human IgG1, kappa, V domains shown)
VH: QSVEESGGRLVTPGTPLTLTCTASGFDISNYNMQWVRQSPGKGLEWIGIIWSGGYTDYANWAKGRFTISATSTTVDLKSTSPTTEDTATYFCARQGANFGDYTVDLWGPGTLVTVSS
VL: AYDMTQTPASVEVAVGGTVTIKCQASQSIRSSLAWYQQKPGQRPKLLIYRASTLASGVSSRFKGSGSGTQFTLTISGVECADAATYYCQQGYSNINVDNTFGGGTKVEIKR
notes: Anti-C1r antibody
B5: COR0208cc-SG1148 (antibody, human IgG1, kappa, V domains shown)
VH: QSVEESGGRLVTPGTPLTLTCTVSGFSLSNYYMNWVRQAPGKGLEWIGIIASDDNTWYASWAKGRFTISKTSTTVDLKITSPTTEDTATYFCARDLDVGYGSGWYDLWGQGTLVTVSS
VL: AAVLTQTPSPVSVAVGGTVTINCQASQSVYNNNYLAWYQQEPGHRPKLLIYRASKLASGVPSRFSGSGSGTQFTLTISGVQCDDAATYYCLGGYDDFTDTTFGGGTKVEIKR
notes: Anti-C1r antibody; also called COR208; COR208cc(-SG1148)
B6: COR0205gg-SG1148 (antibody, human IgG1, kappa, V domains shown)
VH: QSLEESGGGLFKPTDTLTLTCTVSGFSLSSNAMSWVRQAPGKGLEYIGIIYLTGVTYYATWAKGRFTISKTSTTVDLKITSPTTEDTATYFCAGGEFSLWGPGTLVTVSS
VL: DIIMTQTPASVEAAVGGTVTIKCQASQGIDNYFSWHQQKPGQPPKLLIYKASTLASGVSSRFKGSGSGTEFTLTISDLECDDAATYYCQCTYGYNINDNYGNAFGGGTKVEIKR
notes: Anti-C1r antibody; also called COR205gg(-SG1148)
B7: COR0011bb-SG1148 (antibody, human IgG1, kappa, V domains shown)
VH: QSLEESGGRLVTPGTPLTLTCTASGFTFSGYYMCWVRQTPGKGLEYIGIIASSGNTYYANWAKGRFTISKTSSTTVDLKMTSLTTEDTATYFCAKPESDYVNGMGLWGPGTLVTVSS
VL: DIVMTQTPASVSDPVGGTVTIKCQASQSIYNLLSWYQQKPGQRPKLLIYDASKLASGVPSRFKGSGYGTDFTLTISDLGCADAATYYCQSNYGYSRTDDTFFYGFGGGTKVEIKR
notes: Anti-C1r antibody
B8: COR0278bb-SG1148 (antibody, human IgG1, kappa, V domains shown)
VH: QSLEESGGRLVTPGTPLTLTCTASGFSLSSYDMTWVRQAPGKGLEWIGIIYTLGSAYYASWAKGRFTISRTSTTVDLKMTSPTTEDTATYFCARGGDSYGAVDTAFDLWGPGTLVTVSS
VL: AQVLTQTPSPVSAAVGGTVTISCQSSPSVYSNYLSWYQQKPGQPPKLLIYRASRLASGVPSRFKGSGSGTQFTLTISEVQCDDAATYYCQGYFGNGINAFGGGTKVEIKR
notes: Anti-C1r antibody
B9: COR0067ff-SG1148 (antibody, human IgG1, kappa, V domains shown)
VH: QSLEESGGGLVQPEGSLTLTCKASGIDFSSNAMCWVRQAPGKGLEWIGCIYTGSTTIWYASWAKGRFTISKTSSTTVTLQLNSLTVADTATYFCARRDSSSGYAFKLWGPGTLVTVSS
VL: DIVMTQTPSSVSAAVGGTVTIKCQASENIYSNLAWYQQKSGQPPNLLIYGASTLESGVPSRFKGSGSGTEFTLTISDLECADAAIYYCQCTYDDSSTFGGGTKVEIKR
notes: Anti-C1r antibody
B10: COR0338gg-SG1148 (antibody, human IgG1, kappa, V domains shown)
VH: QSLEESGGGLVQPEGSLTLTCKASGIDFSSNAMCWVRQAPGKGLEWIACIYTGSTTIWYATWAKGRFTISKTSSTTVTLQLNSLTVADTATYFCARRASSSGYAFKLWGPGTLVTVSS
VL: DVVMTQTPFSVSAAVGGTVTIKCQASESIYSNLAWYQQKPGQPPNLLIYGASTLESGVPSRFKGSGSGTEFTLTISDLECDDAAIYYCQCTYDDSSTFGGGTKVEIKR
notes: Anti-C1r antibody
B11: COR0212bb-SG1148 (antibody, human IgG1, kappa, V domains shown)
VH: QEQLKESGGGLVTPGGTLTLTCTASGFSLSSYDMSWVRQAPGKGLDWIGIINTGGSAYYATWAKGRFTISKTSTTVDLKITSPTTEDTATYFCGRKINDAFDPWGPGTLVTVSS
VL: AQVLTQTPFSVSAAVGGTVTINCQASESISSNLAWYQQKPGQPPKLLIYDASDLASGVPSRFKGSGSGKQFTLTISGVQCDDAATYFCQHGWIYDTIDSNCFGGGTKVEIKR
notes: Anti-C1r antibody

The first assay addresses T1, recombinant human C1r2s2 Flag/His tetramer (human, UniProt P09871 16-688; P00736 18-705).
T1 construct: whole entries named; also called hc1r2s2; rC1r2s2
T1 chain 1: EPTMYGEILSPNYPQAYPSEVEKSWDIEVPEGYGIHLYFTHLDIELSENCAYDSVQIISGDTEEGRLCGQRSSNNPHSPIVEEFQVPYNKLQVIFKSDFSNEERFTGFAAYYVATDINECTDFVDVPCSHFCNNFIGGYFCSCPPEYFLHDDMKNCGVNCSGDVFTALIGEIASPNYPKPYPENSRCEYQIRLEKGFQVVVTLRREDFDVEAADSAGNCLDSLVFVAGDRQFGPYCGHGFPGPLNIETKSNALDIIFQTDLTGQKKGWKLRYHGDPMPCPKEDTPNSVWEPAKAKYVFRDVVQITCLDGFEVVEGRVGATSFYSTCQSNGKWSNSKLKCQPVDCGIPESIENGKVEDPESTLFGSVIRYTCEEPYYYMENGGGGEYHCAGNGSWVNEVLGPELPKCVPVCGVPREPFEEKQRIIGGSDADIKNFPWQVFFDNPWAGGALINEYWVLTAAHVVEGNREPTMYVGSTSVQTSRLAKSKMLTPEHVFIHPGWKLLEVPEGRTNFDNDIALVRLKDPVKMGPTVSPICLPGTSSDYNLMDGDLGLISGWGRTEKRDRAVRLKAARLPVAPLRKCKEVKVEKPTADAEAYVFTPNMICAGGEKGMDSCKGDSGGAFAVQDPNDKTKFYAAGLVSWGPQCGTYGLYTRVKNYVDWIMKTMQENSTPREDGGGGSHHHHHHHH
T1 chain 2: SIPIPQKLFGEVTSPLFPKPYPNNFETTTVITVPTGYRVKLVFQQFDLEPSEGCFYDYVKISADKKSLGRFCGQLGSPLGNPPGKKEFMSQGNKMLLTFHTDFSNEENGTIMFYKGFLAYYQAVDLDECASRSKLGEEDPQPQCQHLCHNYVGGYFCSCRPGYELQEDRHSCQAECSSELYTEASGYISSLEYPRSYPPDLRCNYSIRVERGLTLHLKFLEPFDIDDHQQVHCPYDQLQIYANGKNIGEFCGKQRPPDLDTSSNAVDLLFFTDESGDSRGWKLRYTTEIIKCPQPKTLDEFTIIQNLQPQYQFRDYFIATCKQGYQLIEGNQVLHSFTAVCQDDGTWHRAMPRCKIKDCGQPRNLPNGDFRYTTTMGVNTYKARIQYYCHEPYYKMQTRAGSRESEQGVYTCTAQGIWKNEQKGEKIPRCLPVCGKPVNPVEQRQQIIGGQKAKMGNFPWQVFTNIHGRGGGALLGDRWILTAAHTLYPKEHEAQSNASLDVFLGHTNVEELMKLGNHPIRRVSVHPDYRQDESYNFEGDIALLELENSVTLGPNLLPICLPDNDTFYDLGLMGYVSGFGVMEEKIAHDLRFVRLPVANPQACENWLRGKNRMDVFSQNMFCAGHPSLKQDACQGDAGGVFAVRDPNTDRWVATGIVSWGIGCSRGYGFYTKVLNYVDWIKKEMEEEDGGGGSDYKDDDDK
Briefly: SPR displacement (37 degrees C, pH 7.4): C1r2s2 captured by anti-His, C1q 100 nM pre-bound, antibody 500 nM at 10 micro L/min; time from antibody injection until the antibody sensorgram falls below the buffer sensorgram; competitor native human C1q. How it is done: An anti-His antibody (GE-Healthcare) was immobilized onto all flow cells of a CM4 sensor chip using an amine coupling kit (GE Healthcare). The antibodies, recombinant human C1r2s2 Flag/His tetramer and native human C1q (Comptech A099) were prepared in pH 7.4 buffer (20 mM ACES, 150 mM NaCl, 1.2 mM CaCl₂, 1 mg/mL BSA (IgG-free), 1 mg/mL CMD, 0.05% Tween 20, 0.005% NaN₃, pH 7.4). Recombinant human C1r2s2 Flag/His tetramer was first captured onto the sensor surface by the anti-His antibody (“hc1r2s2” in FIG. 2A). The capture levels were aimed at 200 resonance unit (RU). Native human C1q was injected at 100 nM to have a capture of 200 RU (“hc1q” in FIG. 2A), followed by antibody injection at 500 nM at 10 micro L/min for 1200 sec immediately. The sensor surface was regenerated each cycle with 10 mM Glycine-HCl (pH 1.5). For the antibodies with the C1q displacement function, the response unit of Sensorgram 2 (large dotted line; “C1r2s2+C1q+Ab” in FIGS. 2A and 2C) is lower than the response unit in Sensorgram 1 (small dotted line; “C1r2s2+C1q+buffer” in FIGS. 2A and 2C) after the time point where Sensorgrams 1 and 2 cross (“time point of crossover”). Depending on the time when Sensorgram 2 crosses over Sensorgram 1, COS0499 was categorized as a fast displacement variant. […] COS0448 was in the middle of fast displacement and slow displacement.
The time point of crossover is identified by subtraction of the buffer response (Sensorgram 1) from the antibody (Ab) response (Sensorgram 2), and referring to the time point when the differential value changes from positive to negative (Table 4). The time from the start of Ab injection is indicated in Table 4 as “time point of crossover”.
In the case of B1, the “Time point of crossover (post-injection)” value turned out to be 169 s. With B2, the “Time point of crossover (post-injection)” value worked out at 61.9 s. In the case of B3, the “Time point of crossover (post-injection)” value came out at 542 s.

The next assay has as its target T1, recombinant human C1r2s2 Flag/His …. The assay is described as above. The source holds these as a separate data set. How it is done:
An anti-His antibody (GE-Healthcare) is immobilized onto all flow cells of a CM4 sensor chip using an amine coupling kit (GE Healthcare). The antibodies, recombinant human C1r2s2 Flag/His tetramer and native human C1q (Comptech A099) are prepared in pH 7.4 buffer (20 mM ACES, 150 mM NaCl, 1.2 mM CaCl₂, 1 mg/mL BSA (IgG-free), 1 mg/mL CMD, 0.05% Tween 20, 0.005% NaN₃, pH 7.4). Recombinant human C1r2s2 Flag/His tetramer is first captured onto the sensor surface by the anti-His antibody (“hc1r2s2”). The capture levels are aimed at 200 resonance unit (RU). Native human C1q is injected at 100 nM to have a capture of 200 RU (“hc1q”), followed by antibody injection at 500 nM at 10 micro L/min for 1200 sec immediately. The sensor surface is regenerated each cycle with 10 mM Glycine-HCl (pH 1.5). For antibodies with the C1q displacement function, the response unit of Sensorgram 2 (in the presence of C1r2s2, C1q, and antibody) is lower than the response unit in Sensorgram 1 (in the presence of C1r2s2, C1q, and buffer, but in the absence of antibody) after the time point where Sensorgrams 1 and 2 cross (“time point of crossover”).
The time point of crossover is identified by subtraction of the buffer response (Sensorgram 1) from the antibody (Ab) response (Sensorgram 2), and referring to the time point when the differential value changes from positive to negative (Table 5).
Regarding B4, the “Time point of crossover (post-injection)” value was found to be 235 s. Same read-out and setting: the figure for B5 is 197 s; for B6 it is 216 s; for B7 it is 613 s. Still for that read-out and setting: then B8, with 218 s; and B9, with 85 s. As for B10, the “Time point of crossover (post-injection)” value was 101 s. Consider B11, for which the “Time point of crossover (post-injection)” value was found to be 432 s.
